Data published in publication doi:10.1101/2020.02.18.953257.

Target: human Replication Factor C (hRFC) with RFC1ΔN555 (human) (UniProt P35251)

apparent Kd from hRFC ATPase activity as a function of PCNA concentration: 120 nM
Substance: S228I-PCNA (from UniProt P12004 1-261) (natural protein)
